# Measured values taken from patent US20050059589A1, “Methods and compositions for treating allergic reactions” (priority 1991, published 2005).
# What was measured:
# [1] = tested on: cutaneous allergic reactions following the intradermal administration of antigen; assay: LPR skin test, intradermal challenge with dust mite antigen; assay type: in vivo, human; conditions: IL-1 receptor 1.65 mg/ml injected with dust mite antigen, versus allergen without receptor
# Method: The LPR skin test is performed by interadermally injecting subjects on the forearm with test solution. The test solution contains the challenging antigen. Controls receive test solution without challenging antigen. The injection site is thereafter examined at intervals up to 96 hours. The diameters of the reactions are measured in two perpendicular directions and the characteristics are noted at different times.
# The LPR gradually subsides over a 24 hour period. At the peak, the injection site is characterized by erythema, warmth, edema, pruritus and/or tenderness. The LPR is more extensive in area and produces greater discomfort then the early phase reaction.
# Dust mite antigen is used (D. pteronyssinus; Allergy Laboratories of Ohio; 30,000 AU/ml). The soluble IL-1 receptor (Immunex Corp.; Seattle, Wash.) stock concentration is 10 mg/ml. Eight test solutions are prepared for intradermal injections (0.01 ml each) using TB syringes and disposable needles. Four intradermal test sites are used on each forearm.
# Two test solutions are controls. […] Three concentrations of the antigen are evaluated (final concentrations: 1:500,000, 1:200,000, and 1:100,000).
# The area of the wheal reaction is marked on the skin with a ball-point pen. […] The wheal reactions are then calculated by counting the squares within the pen-marked area.
# [2] = tested on: late phase reaction in lung tissue of patients with allergic bronchial asthma; assay: allergen inhalation (dust mite extract) with bronchoalveolar lavage; assay type: in vivo, human; conditions: allergen premixed with IL-1 receptor versus allergen alone
# Method: In this example, twenty patients with documented allergic bronchial asthma participate. Allergen inhalation is performed by inhaling dust mite extract (see Example 1, above) at 15 minute intervals using a Wiesbadnener Doppelspray (8 L/min air flow, nebulizer output approximately 0.2 ml/min). Ten patients received the allergen premixed with IL-1 receptor; the other ten patients received the allergen alone.
# Eosinophil granule major basic protein levels are markedly elevated in the lavage fluid of these asthmatic patients. Peripheral blood eosinophil counts decrease during late phase responses to antigen challenge at the time eosinophil levels in the pulmonary tissues increases, presumably because of margination and emigration in the lungs.
# [3] = tested on: conjunctival allergic response to ryegrass allergen; assay: conjunctival provocation test (CPT) with ryegrass allergen; assay type: in vivo, human
# Method: Ten ryegrass-sensitive patients with hay fever conjunctivitis and ten nonallergic subjects without ocular disease are challenged by weekly topical administration of ryegrass allergen for 4 weeks with 10 μl of four different allergen doses (10,000, 32,000, 100,000, and 320,000 BU/ml of ryegrass allergen) (Pharmalgen, Pharmacia Diagnostics AB, Uppsala, Sweden). Albumin diluent (Pharmacia), is used to dilute the allergen. Five of the patients and five of the nonallergic subjects are given allergen premixed with IL-1 receptor. The other five patients and subjects are given allergen without IL-1receptor. Importantly, the allergic patients and control subjects have no clinical symptoms before ocular provocation. […]
# The challenge solution is administered to the contralateral eye in both patients and control subjects. Clinical conjunctival evaluation with tear-fluid cytology is assessed in both eyes before administration of allergen or buffer 20 minutes, one hour, and six hours after challenge. In both the allergic patients and control subjects, the following ocular symptoms, both subjective and objective, are evaluated by a physician: hyperemia, edema, tearing, and itching. Each symptom is scored from 0 to 4+ and graded as follows: 0—absent; 1+—mild; 2+—moderate; 3+—severe; and 4+—very severe. […]
# [4] = tested on: alloreactivity in vivo; conditions: systemic administration; cited from earlier work
# [5] = tested on: early and late phase response in nasal tissue of patients with seasonal allergic rhinitis; assay: nasal challenge with ragweed or mixed-grass pollen antigen; assay type: in vivo, human; conditions: prechallenge nasal lavages with IL-1 receptor versus buffer, 1000 PNU antigen, late and rechallenge reactions
# Excerpt: Sixteen patients with seasonal allergic rhinitis due to grass or ragweed pollens are selected.
# Ragweed and mixed-grass pollen extracts (timothy, orchard, June and meadow grass in a ratio of 3:2:3:2) are purchased from Greer Laboratories (Lenoir, N.C.); lactated Ringer's solution and oxymetazoline hydrochloride (Afrin, Schering, Kenilworth, N.J.) are purchased from the hospital pharmacy.
# At the time of the challenge, oxymetazoline hydrochloride is sprayed into the nose (two sprays per nostril) of all patients to prevent mucosal congestion, which would interfere with the collection of nasal secretions.
# Eight of the sixteen patients receive four prechallenge nasal lavages with IL-1 receptor diluted in buffer; the remaining […] receive lavages with buffer only. Thereafter, challenges with 1000 PNU of antigen are undertaken.
# The patients maintain a symptom score sheet during the challenge procedure. In addition to the number of sneezes, a six-point scale from 0 to 5 (with 0 equal to no symptoms and 5 equal to severe symptoms) is used to assess nasal secretion, blockage, and itching. The degree of blockage is, of course, underestimated on those score sheets because of the pretreatment with oxymetazoline hydrochloride. The presence or absence of symptoms correlates with the presence or absence of mediators during the late reaction.
# [6] = tested on: experimental autoimmune encephalomyelitis; conditions: interperitoneal administration; cited from earlier work
molecule,measurement,setting,value
"IL-1 receptor: soluble IL-1 receptor (Immunex Corp.; Seattle, Wash.), stock concentration 10 mg/ml (protein, UniProt P14778 18-336, looked up, extracellular domain, soluble IL-1 receptor (Immunex Corp; Seattle, Wash.), stock concentration 10 mg/ml) extracellular domain: LEADKCKEREEKIILVSSANEIDVRPCPLNPNEHKGTITWYKDDSKTPVSTEQASRIHQHKEKLWFVPAKVEDSGHYYCVVRNSSYCLRIKISAKFVENEPNLCYNAQAIFKQKLPVAGDGGLVCPYMEFFKNENNELPKLQWYKDCKPLLLDNIHFSGVKDRLIVMNVAEKHRGNYTCHASYTYLGKQYPITRVIEFITLEENKPTRPVIVSPANETMEVDLGSQIQLICNVTGQLSDIAYWKWNGSVIDEDDPVLGEDYYSVENPANKRRSTLITVLNISEIESRFYKHPFTCFAKNTHGIDAAYIQLIYPVTNFQK",reduction of wheal at peak of LPR,[1]; LPR peak between eight and 13 hours,at least 50%
same,"wheal area, early phase",[1]; twenty minutes post injection,reduced
same,"activation of mast cells, infiltration of the tissues by eosinophils and other inflammatory cells, tissue damage and dysfunction (histologic data)",[2],markedly suppressed
same,eosinophil emigration in the lungs (bronchoalveolar lavage),[2],suppression
same,immediate hypersensitivity ocular reaction (clinical response),"[3]; allergic subjects, allergen premixed with IL-1 receptor versus allergen without receptor, all allergen doses",significantly reduced response
same,increase in eosinophils in the tear fluid,"[3]; highest allergen dose, 6 hours after provocation (late phase), allergic patients",not seen
same,survival of heart allografts,[4],prolonged
same,nasal symptoms,[5],inhibits
same,release of histamine and other inflammatory mediators,[5],inhibits
same,severity of the disease,[6],reduced
